Source: publication PMC4191604 (Journal of Medicinal Chemistry, 2014)

Target: T1, GBP1 GTPase (human GBP1, recombinant wild type) (human, UniProt P32455 1-592)
T1 sequence (looked up): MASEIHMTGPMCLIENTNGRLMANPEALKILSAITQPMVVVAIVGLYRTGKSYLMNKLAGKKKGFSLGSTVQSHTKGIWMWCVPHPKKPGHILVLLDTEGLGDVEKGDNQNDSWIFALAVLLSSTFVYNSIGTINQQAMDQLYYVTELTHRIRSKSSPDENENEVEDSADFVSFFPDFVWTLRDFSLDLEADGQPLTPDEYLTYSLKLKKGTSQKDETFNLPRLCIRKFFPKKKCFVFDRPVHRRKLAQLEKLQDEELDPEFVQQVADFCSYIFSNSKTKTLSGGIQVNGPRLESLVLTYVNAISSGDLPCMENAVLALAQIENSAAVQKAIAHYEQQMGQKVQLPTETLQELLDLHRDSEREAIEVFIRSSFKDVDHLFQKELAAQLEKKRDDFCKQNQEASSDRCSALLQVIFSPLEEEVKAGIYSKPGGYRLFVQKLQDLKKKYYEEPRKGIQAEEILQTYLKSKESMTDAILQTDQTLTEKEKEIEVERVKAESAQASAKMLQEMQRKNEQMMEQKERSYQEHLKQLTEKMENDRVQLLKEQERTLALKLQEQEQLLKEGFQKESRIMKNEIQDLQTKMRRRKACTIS
Test: SPR

- Kd: 38 ± 14 nM
B1: PIM1 (recombinant) (enzyme)
chain: not shown
